Consider one molecule from US8084434 (UNIVERSITY OF MARYLAND, dated 2011).

The assay deals with T1, Flag.RUNX2(P409A) (Homo sapiens (Human), UniProt Q13950 20-521).
T1 construct: also called mutant RUNX2; RUNX2 mutant
Put plainly: co-immunoprecipitation, Flag.RUNX2(P409A) and HA.YAP. On the procedure: Mutation of the first proline to an alanine completely abolished transcriptional activity. We reasoned that if YAP was directly interacting with RUNX2, a mutation of the first proline to an alanine in RUNX2 would reduce YAP binding and not affect the repression of the p21 CIP1 promoter. The mutant RUNX2, designated RUNX2 (P409A), was generated and its ability to interact with YAP was assessed. […] We expected that the mutant RUNX2 would retain its ability to bind DNA since the P409A mutation was downstream of the Runt DNA binding domain (amino acids 50-177). To measure RUNX2(P409A) DNA binding, DNA precipitation assays using the wild type 20-mer, double-stranded oligonucleotide from the p21 CIP1 promoter site A were performed using nuclear lysates from HEK293 cells transfected with two mutant Flag.RUNX2(P409A) clones. Both RUNX2(P409A) mutant clones retained DNA-binding activity. After verification of DNA binding, the ability of the RUNX2 mutant protein to repress p21CIP1 promoter activity was determined. NIH3T3 cells were transfected with either RUNX2 or RUNX2(P409A) and luciferase activity was measured. Both mutant RUNX2(P409A) clones and the wild-type RUNX2 were strong repressors of the p21CIP1 promoter. However, HA.YAP was unable to relieve p21 CIP1 promoter repression by the mutant Flag.RUNX2(P409A). […]

T1 sequence (Q13950 other isoform, or with tags, fused parts or gaps P409A P409A): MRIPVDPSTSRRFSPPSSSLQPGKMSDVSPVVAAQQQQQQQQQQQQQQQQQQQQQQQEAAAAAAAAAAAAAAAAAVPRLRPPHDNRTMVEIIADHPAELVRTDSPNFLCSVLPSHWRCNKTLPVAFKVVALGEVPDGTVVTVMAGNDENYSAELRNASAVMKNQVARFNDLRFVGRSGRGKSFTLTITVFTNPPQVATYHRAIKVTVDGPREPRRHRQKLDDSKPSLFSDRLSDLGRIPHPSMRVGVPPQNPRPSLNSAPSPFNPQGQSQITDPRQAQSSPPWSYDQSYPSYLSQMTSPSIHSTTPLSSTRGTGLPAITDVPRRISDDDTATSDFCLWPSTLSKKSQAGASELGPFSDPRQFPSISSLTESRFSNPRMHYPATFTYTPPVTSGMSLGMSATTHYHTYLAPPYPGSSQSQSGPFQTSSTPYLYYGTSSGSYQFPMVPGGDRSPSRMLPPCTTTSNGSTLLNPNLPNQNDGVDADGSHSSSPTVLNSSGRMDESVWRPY

B1: HA.YAP (other, not shown: small tags and cut ends)
chain: MDPGQQPPPQPAPQGQGQPPSQPPQGQGPPSGPGQPAPAATQAAPQAPPAGHQIVHVRGDSETDLEALFNAVMNPKTANVPQTVPMRLRKLPDSFFKPPEPKSHSRQASTDAGTAGALTPQHVRAHSSPASLQLGAVSPGTLTPTGVVSGPAATPTAQHLRQSSFEIPDDVPLPAGWEMAKTSSGQRYFLNHIDQTTTWQDPRKAMLSQMNVTAPTSPPVQQNMMNSASAMNQRISQSAPVKQPPPLAPQSPQGGVMGGSNSNQQQQMRLQQLQMEKERLRLKQQELLRQVRPQELALRSQLPTLEQDGGTQNPVSSPGMSQELRTMTTNSSDPFLNSGTYHSRDESTDSGLSMSSYSVPRTPDDFLNSVDEMDTGDTINQSTLPSQQNRFPDYLEAIPGTNVDLGTLEGDGMNIEGEELMPSLQEALSSDILNDMESVLAATKLDKESFLTWL
notes: Expressed in HEK293 cells and assayed in nuclear lysates; also called HA-tagged YAP; YAP65
On to B1, for which the binding result is on record as “no binding”.
